# Tests used:
# [1] = molecular target: A/New York/631/1996 H3N2 hemagglutinin head domain (HA1 43-309) (Influenza A virus A/New York/631/1996 …, strain); assay: crystal structure
# [2] = molecular target: A/California/07/2009 H1N1 hemagglutinin, recombinant HA used for negative-stain EM (Influenza A virus A/California/07/2009 …, UniProt C3W5X2, strain); assay: negative-stain EM
Binder,binding result [1],binding result [2]
"Fab 49_C09 (Fab, V domains shown) VH: QSTLKESGPTLVKPTETLTLTCTFSGFSLHTSGVGVGWIRQPPGKALECLALIYWNDDARYSPSLQSRLTITKDTSKNQVVLTMSNMDPVDTATYYCAHKGGGRDGYNSAAFDVWGQGTMVTVSS VL: SYVLTQPPSVSVAPGQTARIPCGGNNIGMKTVHWYQQRPGQAPVVVVYDDSRRPSGIPERFSGSNSGNTATLTISRVEAGDEADYYCQVWDSSVNHWVFGGGTKLTVL",binds,
"49_C09 monoclonal antibody (IgG1) (antibody, V domains shown) VH: QSTLKESGPTLVKPTETLTLTCTFSGFSLHTSGVGVGWIRQPPGKALECLALIYWNDDARYSPSLQSRLTITKDTSKNQVVLTMSNMDPVDTATYYCAHKGGGRDGYNSAAFDVWGQGTMVTVSS VL: SYVLTQPPSVSVAPGQTARIPCGGNNIGMKTVHWYQQRPGQAPVVVVYDDSRRPSGIPERFSGSNSGNTATLTISRVEAGDEADYYCQVWDSSVNHWVFGGGTKLTVL",,binds
"Fab 3_H2 (Fab, V domains shown) VH: QGTLKESGPAMVKPTQTLTLTCTFSGFSLDTSGMCVAWIRQPPGKALEWLALFDWDNNKYYSPSLKTRLNMSKGRSRNQVVLTMTNMDPVDTGTYYCARKVYGSFYYGMDVWGQGTTVTVSS VL: DIVLTQSPATLSLSPGDSATLSCRASQDVSANLAWYQQKPGQAPRLVIYDATNRATGIPARFSGSGLGTDFTLTISSLEPEDFAVYYCQQRSNWPPVYTFGQGTKLEIK",binds,
"3_H2 monoclonal antibody (IgG1) (antibody, V domains shown) VH: QGTLKESGPAMVKPTQTLTLTCTFSGFSLDTSGMCVAWIRQPPGKALEWLALFDWDNNKYYSPSLKTRLNMSKGRSRNQVVLTMTNMDPVDTGTYYCARKVYGSFYYGMDVWGQGTTVTVSS VL: DIVLTQSPATLSLSPGDSATLSCRASQDVSANLAWYQQKPGQAPRLVIYDATNRATGIPARFSGSGLGTDFTLTISSLEPEDFAVYYCQQRSNWPPVYTFGQGTKLEIK",,binds

# Reference: article doi:10.1101/2025.09.24.25335646 (medRxiv, 2025)
